Data as given in patent US20240043507A1 (RQ BIOTECHNOLOGY, published 2024).

What was measured:
[1] = target: SARS-CoV-2 spike protein on authentic virus, strain B.1.1.7 (SARS-CoV-2, UniProt P0DTC2 14-1273); experiment: cell-based or functional assay
[2] = target: T1, SARS-CoV-2 spike on whole virus (SARS-CoV-2/human/AUS/VIC01/2020, Victoria) (SARS-CoV-2, UniProt P0DTC2 14-1273); experiment: cell-based or functional assay
[3] = target: T2, SARS-CoV-2 spike protein on authentic virus, strain SARS-CoV-2/human/AUS/VIC01/2020 (Victoria) (SARS-CoV-2, UniProt P0DTC2 14-1273); experiment: cell-based or functional assay
[4] = target: T2, SARS-CoV-2 spike protein on authentic …; experiment: cell-based or functional assay; remark: listed apart in the source
[5] = target: T2, SARS-CoV-2 spike protein on authentic …; experiment: whole-virus capture ELISA, half-maximal binding
[6] = target: T2, SARS-CoV-2 spike protein on authentic …; experiment: calculated from whole-virus ELISA binding and FRNT50
[7] = target: T1, SARS-CoV-2 spike on whole virus …

| Binder | IC50 (ug/ml), FRNT [1] [µg/mL] | Neutralisation IC50 (FRNT) [2] [µg/mL] | Neutralisation IC50 [3] [nM] | IC50 (ug/ml), FRNT [4] [µg/mL] | Kd [5] [nM] | % Occupancy [6] [%] | other results |
| --- | --- | --- | --- | --- | --- | --- | --- |
| antibody 384, full-length IgG (antibody, V domains shown) VH: EVQLVESGGGLVKPGESLRLSCAASGFTFSDYYMTWIRQAPGKGLEWVSYIRSSGHTIYYADSVKGRFTISRDNAKNSLYLQMNSLRVEDTAVYYCARGGVLRFLEWPLNAFDIWGQGTMVTVSS VL: DIQLTQSPSSLSASVGDRVTITCRASQGISNYLAWYQQKPGKVPKLLIYAASTLQSGVPSRFSGSGSGTDFTLTISSLQPEDVATYYCQKYNNALGTFGQGTKVEIK | 0.005 |  |  |  |  |  |  |
| mAb 175 (antibody, V domains shown) VH: EVQLVESGGGLIQPGGSLRLSCAASGLTVSRNYMSWVRQAPGKGLEWVSLIYSGGSTYYADSVKGRFTISRDNSKNTLYLQMNSLRAEDTAVYYCARDLRGEVWGQGTMVTVSS VL: not shown |  | 0.033 |  |  |  |  |  |
| mAb 159 (antibody, V domains shown) VH: EVQLVESGGGVVQPGRSLRLSCAASGFTFSSYGMHWVRQAPGKGLEWVALISYDGGNRYYADSVKGRFTISRDNSKNTLYLQMNRLRAEDTAMYYCAKDRDDGWDWYYFMDVWGKGTTVTVSS VL: DIQLTQSPGTLSLSPGERATLSCRASQSISGNYLAWYQHKPGQAPRLLIYGASTRATGIPDRFSGSGSGTDFTLTISRLEPEDFAVYYCQQYGSSYTFGQGTKVEIK |  | 0.005 |  |  |  |  |  |
| antibody 159, full-length IgG (antibody, V domains shown) VH: EVQLVESGGGVVQPGRSLRLSCAASGFTFSSYGMHWVRQAPGKGLEWVALISYDGGNRYYADSVKGRFTISRDNSKNTLYLQMNRLRAEDTAMYYCAKDRDDGWDWYYFMDVWGKGTTVTVSS VL: DIQLTQSPGTLSLSPGERATLSCRASQSISGNYLAWYQHKPGQAPRLLIYGASTRATGIPDRFSGSGSGTDFTLTISRLEPEDFAVYYCQQYGSSYTFGQGTKVEIK | 0.061 |  | 0.08 | 0.011 | 0.19 | 30 | B.1.1.7/Victoria Ratio of IC50 [1]: 5.71 |
| antibody 316, full-length IgG (antibody, V domains shown, also called mAb 316; 316 IgG) VH: not shown VL: QAVLTQPPSASGSPGQSVTISCTGTSSDVGGYNYVSWYQQHPGKAPKLMIYEVSKRPSGVPDRFSGSKSGNTASLTVSGLQAEDEADYYCSSYAGSNHWVFGGGTKLTVL | 0.024 |  | 0.08 | 0.018 | 0.13 | 35.4 |  |
| mAb 222 (antibody, V domains shown) VH: EVQLVESGGGLIQPGGSLRLSCAASGLTVSSNYMSWVRQAPGKGLEWVSVIYSGGSTFYADSVKGRFTISRDNSKNTLYLQMNSLGAEDTAVYYCARGEGSPGNWFDPWGQGTLVTVSS VL: DVVMTQSPGTLSLSPGERATLSCRASQSVPSSYLAWYQQKPGQAPRLLIYGASTRATGIPDRFSGSGSGTDFTLTISRLEPEDFAVYYCQHYDTSPRFGGGTKVDIK |  | 0.016 |  |  |  |  |  |
| antibody 158, full-length IgG (antibody, V domains shown, also called mAb 158; 158 IgG) VH: EVQLLESGGDLIQPGGSLRLSCAASGVTVSSNYMSWVRQAPGKGLEWVSIIYPGGSTFYADSVKGRFTISRDNSKNTLYLQMHSLRAEDTAVYYCARDLGSGDMDVWGKGTTVTVSS VL: DIVMTQSPSFLSASVGDRVTITCRASQGISSYLAWYQQKPGKAPKLLIQAASTLQSGVPSRFSGSGSGTEFTLTISSLQPEDFATYYCQQLNSYRYTFGQGTKVEIK | 0.254 |  | 0.13 | 0.031 | 0.5 | 20.5 |  |
| antibody 150, full-length IgG (antibody, V domains shown) VH: QVQLVESGGGLIQPGGSLRLSCAASGVTVSSNYMSWVRQAPGKGLEWVSIIYSGGTTYYADSVKGRFTISRDSSMNTLYLQMNSLRAEDTAVYYCARDLMVYGIDVWGQGTTVTVSS VL: EIVMTQSPSSLSASVGDRVTITCRASQGISSYLAWYQQKPGKAPKLLIYAASTLQSGVPSRFSGSGSGTDFTLTISSLQPEDFATYYCQQLDSYPPGYTFGQGTKVDIK | 0.139 |  |  |  |  |  | B.1.1.7/Victoria Ratio of IC50 [1]: 12 |
| mAb 269 (antibody, V domains shown) VH: QVQLVESGGGLIQPGGSLRLSCAASGLTVNRNYMSWIRQAPGKGLEWVSVIYSGGSTFYADSVKGRFTISRDNSKNTLSLQMNSLRAEDTAIYYCARDFYEGSFDIWGQGTMVTVSS VL: AIQLTQSPSFLSASIGDRVTITCRASQGISSYLAWYQQKPGKAPKLLIYAASTLQSGVPSRFSGSGSGTEFTLTISSLQPEDFASYYCQQLNSYPAPVFGPGTKVDIK |  | 0.036 |  |  |  |  |  |
| antibody 40, full-length IgG (antibody, V domains shown, also called mAb 40; 40 IgG) VH: QVQLVESGGGLVQPGGSLRLSCAVSGFTVSRNYMSWVRQAPGKGLEWVSLIYSGGSTFYADSVKGRFTISRDNSKNTLYLQMNSLRAEDTAVYYCARDLFHRSGYHDYWGQGTLVTVSS VL: not shown | 0.035 |  | 0.16 | 0.026 | 0.33 | 33.3 |  |
| mAb 40 (antibody, V domains shown) VH: QVQLVESGGGLVQPGGSLRLSCAVSGFTVSRNYMSWVRQAPGKGLEWVSLIYSGGSTFYADSVKGRFTISRDNSKNTLYLQMNSLRAEDTAVYYCARDLFHRSGYHDYWGQGTLVTVSS VL: not shown |  |  |  |  |  |  | EC50 (read off the curve) [7]: ~0.3 nM |
| mAb 253H165L (antibody, V domains shown) VH: not shown VL: DIVMTQSPGTLSLSPGERATLSCRASQSVRSSYLAWYQQKPGQAPRLLIYGASRRGTGIPDRFSGSGSGTDFTLTISRLEPEDFAVYYCQQYGSSPWTFGQGTKVEIK |  | 0.003 |  |  |  |  | EC50 (read off the curve) [7]: ~0.1 nM |
| mAb 165 (antibody, V domains shown) VH: QVQLVQSGPEVKKPGTSVKVSCKASGFTFTSSAVQWVRQARGQRLEWIGWIVVGSGNTNYAQKFQESVTITRDMSTSTAYMELSSLRSEDTAVYYCAAPHCIGGSCHDAFDIWGQGTMVTVSS VL: DIVMTQSPGTLSLSPGERATLSCRASQSVRSSYLAWYQQKPGQAPRLLIYGASRRGTGIPDRFSGSGSGTDFTLTISRLEPEDFAVYYCQQYGSSPWTFGQGTKVEIK |  | 0.021 |  |  |  |  |  |
| mAb 318 (antibody, V domains shown) VH: QVQLVQSGPEVKKPGTSVKVSCKASGFTLTSSAMQWVRQARGQRLEWIGWIVVGSGNTNYAQKFQERVTITRDMSTSTAYMELSSLRSEDTAVYYCAAGRGYNSDFDYWGQGTLVTVSS VL: AIRMTQSPGTLSLSPGERATLSCRASQSVSSSYLAWYQQRPGQAPRLLIYGTSSRATGIPDRFSGSGSGTDFTLTISRLEPEDFAVYYCQQYGYSVYTFGQGTKVDIK |  | 0.015 |  |  |  |  |  |
| antibody 88, full-length IgG (antibody, V domains shown, also called mAb 88; 88 IgG) VH: QLQLQESGPGLVKPSQTLSLTCTVSGGSISSGSYNWTWIRQPAGKGLEWIGRIYNSGSTNYNPSLKSRVTISVDTSKNQLSLKVRSVTAADTAVYYCARHCSGGTCYPKYYYGMDVWGQGTTVTVSS VL: QSALTQPPSVSEAPRQRVTISCSGSSSNIGNNAVNWYQQFPGKAPKLLIYYDDLLPSGVSDRFSGSKSGTSASLAISGVQSEDEADYYCAAWDDSLNVVVFGGGTKLTVL | 0.058 |  | 0.07 | 0.033 | 0.25 | 21.9 |  |
| mAb 88 (antibody, V domains shown) VH: QLQLQESGPGLVKPSQTLSLTCTVSGGSISSGSYNWTWIRQPAGKGLEWIGRIYNSGSTNYNPSLKSRVTISVDTSKNQLSLKVRSVTAADTAVYYCARHCSGGTCYPKYYYGMDVWGQGTTVTVSS VL: QSALTQPPSVSEAPRQRVTISCSGSSSNIGNNAVNWYQQFPGKAPKLLIYYDDLLPSGVSDRFSGSKSGTSASLAISGVQSEDEADYYCAAWDDSLNVVVFGGGTKLTVL |  |  |  |  |  |  | EC50 (read off the curve) [7]: ~0.2 nM |
